Data from patent publication US11781101B2, “3D-printed models of biological microenvironments” (Regents of the University of Minnesota, priority 2018, dated 2023).

Key:
[1] = test system: GFP-A549 lung cancer cells; test: 3D-printed directional cell migration chamber, EGF capsules, A549; type: cell-based
Source text: In the example experiment illustrated in FIG. 14, a droplet of fibrin loaded with GFP-A549 lung cancer cells 1400 was printed between linear arrays of chemoattractant capsules 1404 (right) and blank control capsules 1402 (left). The printed droplet defined the primary site of the tumor cells 1400. To generate a long-lasting EGF gradient, capsules 1402 and 1404 were ruptured sequentially at 2-day intervals, starting with the capsule 1408A closest to the cell 1400. Concomitantly, a corresponding control capsule 1408B was also ruptured. The resulting EGF gradient and GFP-A549 response to the gradient is discussed below with respect to FIGS. 15A-17.
FIG. 15B is panoramic fluorescence images illustrating distribution of the GFP-expressing A549 cells of FIG. 15A over time during days 6-10 post-laser rupture of the EGF-containing programmable-release capsules of FIG. 15A. […]
FIG. 16 is a graphical representation of cellular fluorescence intensity of example EGF-expressing A549 cells vs time, with and without EGF release from example programmable-release capsules within a cell migration chamber in accordance with examples of this disclosure. […] The cellular growth rates were first quantitatively compared between samples with and without laser-triggered release of EGF by directly analyzing the fluorescence intensity of GFP-expressing cells. […]

[2] = test system: RFP-expressing HUVEC cells; test: 3D-printed directional cell migration chamber, EGF capsules, HUVEC; type: cell-based, human; conditions: EGF capsules sequentially ruptured over 10 days
Source text: (§1) FIG. 21 is a graphical representation of relative selective directed migration of A549 tumor cells, M4A4 tumor cells, and non-tumor HUVEC cells of FIGS. 20A and 20B in response to laser rupture of the EGF-containing programmable release capsules within an example cell migration chamber in accordance with examples of this disclosure. FIG. 21 illustrates distributions of GFP-A549s, GFP-M4A4s, and RFP-HUVECs on day 10, showing the selective directed migration of tumor cells but not HUVECs (mean±s.d., n=4 per group). Scale bar: 500 μm.

[3] = test system: GFP-expressing M4A4 cells (a melanoma cell line); test: 3D-printed directional cell migration chamber, EGF capsules, M4A4; type: cell-based; conditions: EGF capsules sequentially ruptured over 10 days
Source text: as §1

[4] = test system: A549 cells in HUVEC-lined conduit; test: Vascularized extravasation model, EGF capsules; type: cell-based; conditions: EGF gradients from ruptured capsules, fibroblast-laden gel, by day 4
Source text: FIG. 24A is confocal images of a top view and a side view of a representative microchannel lined by HUVECs within a fibrin gel, such as in the context of the example 3D-printed culture chamber of FIG. 23. FIG. 24B is a fluorescence image of a representative microchannel lined by HUVECs and perfused by fluorescent fluid. In the example of FIG. 24A, a microchannel was created using the pin-molding technique within the fibrin gel of the culture chamber. […]
FIG. 26A is fluorescence images of a conduit of an example vascularized 3D-printed culture chamber illustrating guided extravasation of A549s and subsequent metastases generated over time on days 0 and 2 following the programmable release of EGF from EGF-containing programmable release capsules in accordance with examples of this disclosure. FIG. 26B is fluorescence images of the conduit of FIG. 26A illustrating guided extravasation of A549s and subsequent metastases generated over time on days 4 and 6 following laser-triggered rupture of EGF-containing programmable-release capsules (inset: fluorescence image showing transendothelial formation of metastasis). […]
FIG. 27 is fluorescence images showing the vascularized extravasation model of FIG. 26 after A549s were injected within the conduit without rupture of EGF capsules. […]

B1: EGF: EGF, a chemoattractant of carcinoma cells, encapsulated in programmable-release capsules (protein, UniProt P01133 23-1207, looked up)
Pro-epidermal growth factor: PQHWSCPEGTLAGNGNSTCVGPAPFLIFSHGNSIFRIDTEGTNYEQLVVDAGVSVIMDFHYNEKRIYWVDLERQLLQRVFLNGSRQERVCNIEKNVSGMAINWINEEVIWSNQQEGIITVTDMKGNNSHILLSALKYPANVAVDPVERFIFWSSEVAGSLYRADLDGVGVKALLETSEKITAVSLDVLDKRLFWIQYNREGSNSLICSCDYDGGSVHISKHPTQHNLFAMSLFGDRIFYSTWKMKTIWIANKHTGKDMVRINLHSSFVPLGELKVVHPLAQPKAEDDTWEPEQKLCKLRKGNCSSTVCGQDLQSHLCMCAEGYALSRDRKYCEDVNECAFWNHGCTLGCKNTPGSYYCTCPVGFVLLPDGKRCHQLVSCPRNVSECSHDCVLTSEGPLCFCPEGSVLERDGKTCSGCSSPDNGGCSQLCVPLSPVSWECDCFPGYDLQLDEKSCAASGPQPFLLFANSQDIRHMHFDGTDYGTLLSQQMGMVYALDHDPVENKIYFAHTALKWIERANMDGSQRERLIEEGVDVPEGLAVDWIGRRFYWTDRGKSLIGRSDLNGKRSKIITKENISQPRGIAVHPMAKRLFWTDTGINPRIESSSLQGLGRLVIASSDLIWPSGITIDFLTDKLYWCDAKQSVIEMANLDGSKRRRLTQNDVGHPFAVAVFEDYVWFSDWAMPSVMRVNKRTGKDRVRLQGSMLKPSSLVVVHPLAKPGADPCLYQNGGCEHICKKRLGTAWCSCREGFMKASDGKTCLALDGHQLLAGGEVDLKNQVTPLDILSKTRVSEDNITESQHMLVAEIMVSDQDDCAPVGCSMYARCISEGEDATCQCLKGFAGDGKLCSDIDECEMGVPVCPPASSKCINTEGGYVCRCSEGYQGDGIHCLDIDECQLGEHSCGENASCTNTEGGYTCMCAGRLSEPGLICPDSTPPPHLREDDHHYSVRNSDSECPLSHDGYCLHDGVCMYIEALDKYACNCVVGYIGERCQYRDLKWWELRHAGHGQQQKVIVVAVCVVVLVMLLLLSLWGAHYYRTQKLLSKNPKNPYEESSRDVRSRRPADTEDGMSSCPQPWFVVIKEHQDLKNGGQPVAGEDGQAADGSMQPTSWRQEPQLCGMGTEQGCWIPVSSDKGSCPQVMERSFHMPSYGTQTLEGGVEKPHSLLSANPLWQQRALDPPHQMELTQ
modifications: Pro-epidermal growth factor encapsulated in programmable-release capsules
Q: How did the “maximum cell velocity of leading A549 cells” value ([1]; guidance of EGF cues from sequentially laser-ruptured capsules in fibrin gel, x-direction displacement, mean±s.d., n=4) turn out when B1 was run?
A: Its value is 15.48±1.05 μm/h.

Q: And the “growth (proliferation) of tumor cells, cellular fluorescence intensity” value ([1]; laser-triggered EGF release vs no release, 10 days)?
A: Its value is “accelerated”.

Q: And the “migratory response of HUVECs to EGF gradients” value [2]?
A: Its value is “negative migratory response”.

Q: What about the “directed migration of M4A4 cells” value [3] of the same molecule?
A: The value was “exhibited directional movement”.

Q: What about the “transendothelial behavior (extravasation) of A549s” value [4] of the same molecule?
A: Its value is “cells underwent both extravasation and proliferation”.
